Experimental data reported in publication PMC2797393, “Structure of the hDmc1-ssDNA Filament Reveals the Principles of Its Architecture” (PLoS ONE, 2010).

Biological target: the molecule itself
Assay: negative-stain electron microscopy with single-particle statistical analysis; hDmc1 10 uM without DNA, 25 mM Tris-acetate pH 7.0, 2 mM ATP, 100 mM NaCl, 1 mM DTT, 2 mM CaCl2, 37 C for 30 min then on ice; eigen images and class averages of ring particles

B1: Human Dmc1 (hDmc1) (natural protein)
chain: MKEDQVVAEEPGFQDEEESLFQDIDLLQKHGINVADIKKLKSVGICTIKGIQMTTRRALCNVKGLSEAKVDKIKEAANKLIEPGFLTAFEYSEKRKMVFHITTGSQEFDKLLGGGIESMAITEAFGEFRTGKTQLSHTLCVTAQLPGAGGYPGGKIIFIDTENTFRPDRLRDIADRFNVDHDAVLDNVLYARAYTSEHQMELLDYVAAKFHEEAGIFKLLIIDSIMALFRVDFSGRGELAERQQKLAQMLSRLQKISEEYNVAVFVTNQMTADPGATMTFQADPKKPIGGHILAHASTTRISLRKGRGELRIAKIYDSPEMPENEATFAITAGGIGDAKE
notes: human Dmc1, a protein of 340 amino acid residues: N-terminal domain 1-81 and core ATPase domain 82-340; Probably the whole 340-residue protein, since both domains (1-81 and 82-340) were docked into the maps; Octameric ring without DNA; helical filament of open length on DNA; also called human meiotic recombinase Dmc1; source: E. coli BLR(DE3), purified (ammonium sulfate precipitation, HisTrap HP, …)
stoichiometry N: 8
